The text below walks through data of PMC7170535.

For assay [1], the target named is complement C3 (human).
The target in assay [2] is complement C3 (human). Put plainly: SPR; ~2,000 RU C3 immobilised on a CM5 chip; rHC1 as analyte; HEPES-buffered saline pH 7.5, 0.05% Tween 20, 2 mM MnCl2. (In general: In SPR one partner is held on a chip, and binding of the other changes the refractive index at the surface.)
The target of assay [3] is complement C3 (human). Put plainly: SPR; ~2,000 RU C3 immobilised on a CM5 chip by amide coupling; rHC1 or IαI as analyte; HEPES-buffered saline pH 7.5, 0.05% Tween 20, 2 mM Mg2+, 2 mM Mn2+; multicycle kinetics, 1:1 Langmuir.

B1: recombinant inter-α-inhibitor heavy chain 1 (rHC1), wild type (natural protein)
chain: SKSSEKRQAVDTAVDGVFIRSLKVNCKVTSRFAHYVVTSQVVNTANEAREVAFDLEIPKTAFISDFAVTADGNAFIGDIKDKVTAWKQYRKAAISGENAGLVRASGRTMEQFTIHLTVNPQSKVTFQLTYEEVLKRNHMQYEIVIKVKPKQLVHHFEIDVDIFEPQGISKLDAQASFLPKELAAQTIKKSFSGKKGHVLFRPTVSQQQSCPTCSTSLLNGHFKVTYDVSRDKICDLLVANNHFAHFFAPQNLTNMNKNVVFVIDISGSMRGQKVKQTKEALLKILGDMQPGDYFDLVLFGTRVQSWKGSLVQASEANLQAAQDFVRGFSLDEATNLNGGLLRGIEILNQVQESLPELSNHASILIMLTDGDPTEGVTDRSQILKNVRNAIRGRFPLYNLGFGHNVDFNFLEVMSMENNGRAQRIYEDHDATQQLQGFYSQVAKPLLVDVDLQYPQDAVLALTQNHHKQYYEGSEIVVAGRIADNKQSSFKADVQAHGEGQEFSITCLVDEEEMKKLLRERGHMLENHVERLWAYLTIQELLAKRMKVDREERANLSSQALQMSLDYGFVTPLTSMSIRGMADQDGLKPTIDKPSEDSPPLEMLGPRRTFVLSALQPSPTHSSSNTQRLPDRVTGVDTD
In the assay with complement C3 (human) [1], B1 returned a fluid phase alternative pathway C3 convertase (C3bBb) assay, proteolytic release of C3a quantified by SDS-PAGE; rHC1 at 0 to 27 μM of 980 nM. In addition, the Kd in the assay with complement C3 (human) [2] was 473 nM; with complement C3 (human) [3], 364 nM.

The term Kd denotes the equilibrium constant for the complex coming apart.
